Positions of bridges follow the written chain, without caps; N, C: chain ends. Non-standard residues stand in square brackets, D forms with d. Residues, ends and D or L forms follow the SMILES beside them. *: point of attachment. Succinyl(O21-dexamethasone) = C[C@@H]1C[C@H]2[C@@H]3CCC4=CC(=O)C=C[C@]4(C)[C@@]3(F)[C@@H](O)C[C@]2(C)[C@@]1(O)C(=O)COC(=O)CCC(=O)*; X1 = CC(C(=O)OCC(=O)[C@@]1(O)[C@H](C)C[C@H]2[C@@H]3CCC4=CC(=O)C=C[C@]4(C)[C@@]3(F)[C@@H](O)C[C@@]21C)C(C)C(=O)*; Dab = NCC[C@H](N)C(=O)O
Assays:
[1] = Rodent (mouse) PK model of intravenous administration: dexamethasone levels in kidney tissue; type: in vivo; settings: for Kidney drug (dexamethasone) concentration: T = 24 h, the last time point evaluated; for Kidney dexamethasone levels greater than those achieved through injection of unconjugated dexamethasone: drug concentration in kidney tissue, summary of Table 1
Description: Preferential renal targeting validating the delivery of compounds provided herein into kidneys (or at the site of a kidney injury) is evaluated, for example, by pharmacokinetic (PK) tests, such as in a standard rodent PK test. PK data are generally used to establish the key parameters predictive of the therapy outcome. Thus, a drug concentration (C) at given time points, drug concentration at the target tissue(s) (CTarget), area under the curve (AUC) for a plot monitoring the change in the systemic drug concentration over time and other parameters are generally predictive of therapeutic efficacy. For example, drug concentration at an organ affected by cancer is important for effective action of anticancer agents (as described, for example, by Zhang et al. in Drug Metabolism and Disposition. 2019, vol. 47, p. 1122).
Representative compounds provided herein were tested in a rodent PK model of intravenous administration performed analogously to methods described in the monograph Current Protocols in Pharmacology, 2005, 7.1.1-7.1.26, John Wiley & Sons, Inc. Illustrative mouse PK data for the compounds of Examples 1 and 2 are summarized in the Table 1 below.

[2] = tested on: cisplatin-induced acute kidney injury (AKI); assay: Cisplatin-induced acute kidney injury mouse model (blood CREA and BUN on day 3); type: in vivo, C57BL/6 mouse; settings: cisplatin 20 mg/kg i.p.; test articles i.v. after 1 h, 4 mg/kg; about 20% dexamethasone equivalent dosing; FIG. 1
Description: Specifically, in one of the tests, cisplatin (20 mg/kg) was administrated to C57BL/6 mouse (male, weight range 20-25 g) by intraperitoneal injection to induce acute kidney injury. After 1 h, testing articles (saline, or dexamethasone, or a compound of Example 1 or 2) were given by intravenously. On day 3, blood CREA (creatinine) and BUN (blood urea nitrogen) were determined.

[3] = T = 3 h, injection into mouse tail vein
[4] = T = 3 h, injection into mouse tail vein, dexamethasone 1 mg/kg, Examples 4 mg/kg

Drug levels from standard injection of unconjugated drug ([1]; after only 6 h) | concentration at 3 h ([1]; kidney, intravenous, T = 3 h, injection into mouse tail vein, dexamethasone 1 mg/kg, Examples 4 mg/kg, read-out: Kidney tissue concentration (dexamethasone levels in kidneys)) [ng/g] | Structure (SMILES) | Enhanced dexamethasone levels in kidney expressed per ratio vs. dosing of free dexamethasone [1, 3] | Anti-inflammatory efficacy in the AKI model per BUN and CREA values, compared to dexamethasone [2] | Kidney tissue concentration (dexamethasone levels in kidneys) [1, 4] [ng/g] | Kidney drug (dexamethasone) concentration [1] [ng/g] | Kidney dexamethasone levels greater than those achieved through injection of unconjugated dexamethasone [1]
virtually undetectable | 13 | C[C@@H]1C[C@H]2[C@@H]3CCC4=CC(=O)C=C[C@]4(C)[C@@]3(F)[C@@H](O)C[C@]2(C)[C@@]1(O)C(=O)CO [Dexamethasone, dexamethasone, reference compound] | 1 | – | – | – | –
– | – | CC(C)C[C@@H]1NC(=O)[C@@H](Cc2ccccc2)NC(=O)[C@H](CCN)NC(=O)[C@@H](NC(=O)[C@H](CCN)NC(=O)[C@@H](NC(=O)C(C)C(C)C(=O)OCC(=O)[C@@]2(O)[C@H](C)C[C@H]3[C@@H]4CCC5=CC(=O)C=C[C@]5(C)[C@@]4(F)[C@@H](O)C[C@@]32C)[C@@H](C)O)CCNC(=O)[C@H]([C@@H](C)O)NC(=O)[C@H](CCN)NC(=O)[C@H](CCN)NC1=O (stereo partly shown) [Example 1] (X1-T[Dab][Dab][Dab][dF]L[Dab][Dab]T; lactam 3-C) | 9.4 | greatly increased anti-inflammatory efficacy | 122.2 | 21.5 | about 9 fold
– | – | CC(C)C[C@@H]1NC(=O)[C@@H](Cc2ccccc2)NC(=O)[C@H](CCN)NC(=O)[C@@H](NC(=O)[C@H](CCN)NC(=O)[C@@H](NC(=O)CCC(=O)OCC(=O)[C@@]2(O)[C@H](C)C[C@H]3[C@@H]4CCC5=CC(=O)C=C[C@]5(C)[C@@]4(F)[C@@H](O)C[C@@]32C)[C@@H](C)O)CCNC(=O)[C@H]([C@@H](C)O)NC(=O)[C@H](CCN)NC(=O)[C@H](CCN)NC1=O [Example 2] ({Succinyl(O21-dexamethasone)}-T[Dab][Dab][Dab][dF]L[Dab][Dab]T; lactam 3-C) | 7.2 | greatly increased anti-inflammatory efficacy | 93.4 | 18.5 | ~7 fold

Source: US20250109171A1, “COMPOUNDS AND COMPOSITIONS FOR TARGETED THERAPY OF RENAL DISEASES” (SHANGHAI MICURX PHARMACEUTICALS CO., LTD., priority 2021, published 2025)
